The record followed here is patent US20030170748A1 (IAMS, published 2003).

The target in experiment [1] is T1, canine PepT1 (cPepT1) (canine, UniProt Q8WMX5 1-708).
T1 sequence: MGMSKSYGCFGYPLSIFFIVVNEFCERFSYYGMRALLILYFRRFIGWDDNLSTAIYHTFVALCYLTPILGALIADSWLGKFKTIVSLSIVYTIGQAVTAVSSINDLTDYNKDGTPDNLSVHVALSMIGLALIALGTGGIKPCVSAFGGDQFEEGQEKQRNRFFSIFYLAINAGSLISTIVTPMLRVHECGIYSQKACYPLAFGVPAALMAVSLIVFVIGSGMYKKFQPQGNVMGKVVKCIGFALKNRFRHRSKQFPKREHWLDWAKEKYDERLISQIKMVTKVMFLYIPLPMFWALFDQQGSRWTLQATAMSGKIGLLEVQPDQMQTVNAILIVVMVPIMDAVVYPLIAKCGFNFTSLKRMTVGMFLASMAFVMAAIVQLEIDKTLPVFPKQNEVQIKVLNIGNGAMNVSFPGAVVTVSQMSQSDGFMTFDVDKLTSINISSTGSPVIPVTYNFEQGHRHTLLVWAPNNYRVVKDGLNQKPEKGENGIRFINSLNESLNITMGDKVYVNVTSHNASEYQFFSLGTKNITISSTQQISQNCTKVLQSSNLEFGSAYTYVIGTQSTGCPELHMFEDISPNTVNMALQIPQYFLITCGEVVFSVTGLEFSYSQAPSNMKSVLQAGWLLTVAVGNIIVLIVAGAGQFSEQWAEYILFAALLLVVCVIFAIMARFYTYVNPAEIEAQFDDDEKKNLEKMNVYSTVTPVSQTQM
Description: cell-based or functional assay.

For experiment [2], the target named is T1, canine PepT1 (cPepT1). Kind of experiment: inhibition of H+-dependent 100 µM [3H]GlySar uptake by MDCK cells; Ki by graphical analysis of IC50 experiments; competitor GlySar.
Experiment [3] deals with T1, canine PepT1 (cPepT1). Kind of experiment: cell-based or functional assay. The source holds these as a separate data set.
Experiment [4] has as its target T1, canine PepT1 (cPepT1). Description: cell-based or functional assay. The source holds these as a separate data set.

Where two headings read alike, the source gives them in different places. Square brackets hold non-standard residues; d marks the D form. Ends that are not written are not given here. βAla = NCCC(=O)O

In turn, LeuMet (peptide) showed a % inhibition of H+-dependent GlySar uptake (100 µM substrate, 100 µM GlySar, MDCK cells; Leu-containing peptides experiment) in experiment [1] of 80%.
In the case of MetMet (peptide), the % inhibition of H+-dependent GlySar uptake (1 mM substrate, 100 µM GlySar, MDCK cells) in experiment [1] worked out at 100%.
As for MetPhe (peptide), the % inhibition of H+-dependent GlySar uptake (1 mM substrate, 100 µM GlySar, MDCK cells) in experiment [1] amounted to 100%.
As to TrpGlyGly (peptide), in experiment [1], the % inhibition of H+-dependent GlySar uptake (1 mM substrate, 100 µM GlySar, MDCK cells) was 33% and the inhibition of 100 µM GlySar uptake by 1 mM peptide, MDCK cells was 73%.
Broadly, the Ki is a measure of affinity in units of concentration, obtained from inhibition or displacement. Read a low Ki as higher affinity. Turning to TrpLeu (peptide), in experiment [1], the % inhibition of H+-dependent GlySar uptake (100 µM substrate, 100 µM GlySar, MDCK cells; Leu-containing peptides experiment) was found to be 94%; the % inhibition of H+-dependent GlySar uptake (100 µM substrate, 100 µM GlySar, MDCK cells; Trp-containing peptides experiment) was determined as 92%; the % inhibition of H+-dependent GlySar uptake (1 mM substrate, 100 µM GlySar, MDCK cells) is 116%; the % inhibition of pH 6.0 uptake, 10 mM competitor, collagen was 8%. Further, in experiment [1], the % inhibition of pH 6.0 uptake, 10 mM competitor, poly-L-lysine amounted to 8.1%; the Glysylsarcosine uptake, pH 6.0, with 10 mM competitor, MDCK cells on collagen (pmol 30 min^-1 mg^-1 protein) was determined as 5.21; the Glysylsarcosine uptake, pH 6.0, with 10 mM competitor, MDCK cells on poly-L-lysine (pmol 30 min^-1 mg^-1 protein) turned out to be 3.44; the inhibition of H+-dependent 100 µM GlySar uptake by 1 mM peptide, MDCK cells turned out to be 117%. In experiment [1], this molecule displayed an inhibition of H+-dependent GlySar uptake by 10 mM peptide, MDCK cells on collagen of 92% and an inhibition of H+-dependent GlySar uptake by 10 mM peptide, MDCK cells on poly-L-lysine of 92%. The molecule also yielded a Ki in experiment [2] of 200 nM.
In the case of TrpTrp (peptide), in experiment [1], the % inhibition of H+-dependent GlySar uptake (100 µM substrate, 100 µM GlySar, MDCK cells; Trp-containing peptides experiment) is 62% and the % inhibition of H+-dependent GlySar uptake (1 mM substrate, 100 µM GlySar, MDCK cells) was 119%. Further, the Ki in experiment [2] is 750 nM.
For glycylsarcosine (GlySar) (peptide), in experiment [1], the Km of H+-dependent GlySar uptake by MDCK cells (FIG. 12 legend) is 1000 µM; the apparent Km of H+-dependent GlySar uptake by MDCK cells grown in LHM is 1100 µM; the apparent Km of total GlySar uptake by confluent MDCK cells, pH 6.0 came to 4 mM; the self-inhibition of 100 µM GlySar uptake by 1 mM GlySar, MDCK cells turned out to be 64%.
On to GGGGG [[Gly]5], for which the “inhibition of H+-dependent 100 µM GlySar uptake by 1 mM peptide, MDCK cells” value in experiment [3] was found to be 7.3%. Moreover, the “% inhibition of H+-dependent GlySar uptake (1 mM substrate, 100 µM GlySar, MDCK cells)” value in experiment [4] was 9%.
As for LW [LeuTrp], the “inhibition of H+-dependent 100 µM GlySar uptake by 1 mM peptide, MDCK cells” value in experiment [3] is 114%. The “% inhibition of H+-dependent GlySar uptake (1 mM substrate, 100 µM GlySar, MDCK cells)” value in experiment [4] turned out to be 113%.
For GGGG [[Gly]4], the “inhibition of H+-dependent 100 µM GlySar uptake by 1 mM peptide, MDCK cells” value in experiment [3] amounted to 23%. The “% inhibition of H+-dependent GlySar uptake (1 mM substrate, 100 µM GlySar, MDCK cells)” value in experiment [4] amounted to 19%.
For the molecule MGMM [MetGlyMetMet (SEQ ID NO:10)], the “% inhibition of H+-dependent GlySar uptake (1 mM substrate, 100 µM GlySar, MDCK cells)” value in experiment [4] is 50%.
Same read-out and setting: the value for [βAla]-His [Carnosine (β-AlaHis)] was 50%.
